Reference: the Human Domainome abundance scans (Beltran et al. 2025)
± gives the uncertainty stated by the source.

B1: Pituitary-specific positive transcription factor 1, residues 130 to 198; numbered along this chain, P28069 (parent)
chain: RELEKFANEFKVRRIKLGYTQTNVGEALAAVHGSEFSQTTICRFENLQLSFKNACKLKAILSKWLEEAE
B2: Membrane-associated guanylate kinase, WW and PDZ domain-containing protein 2, residues 601 to 682; numbered along this chain, Q86UL8 (parent)
chain: AELMTLTIVKGAQGFGFTIADSPTGQRVKQILDIQGCPGLCEGDLIVEINQQNVQNLSHTEVVDILKDCPIGSETSLIIHRG

Variants of: B1
Assay: abundance fitness (aPCA) (normalised: wild type 0, dead -1); higher = more abundant; growth selection in yeast, the domain comes from the species named
Conditions: Homo sapiens

Abundance fitness of substitutions, site by site:
A7: G -0.885 ± 0.16, L -0.975 ± 0.13, S -0.425 ± 0.19, C -0.21 ± 0.061, Q -0.944 ± 0.46, T -0.356 ± 0.17, M -0.551 ± 0.15, H -0.973 ± 0.34, R -0.7 ± 0.094, D -0.783 ± 0.15, E -0.235 ± 0.11
L3: G -0.571 ± 0.11, I -0.194 ± 0.22, E -0.725 ± 0.29, C -0.953 ± 0.44, F -0.472 ± 0.12, K -0.718 ± 0.26, Y -0.22 ± 0.13, M -0.469 ± 0.13, R -0.751 ± 0.24, S -0.855 ± 0.19, T -0.867 ± 0.4, W -0.715 ± 0.16, D -0.794 ± 0.22, H -0.611 ± 0.18, V -0.468 ± 0.082
Q21: A -0.16 ± 0.079, N -0.766 ± 0.29, G -1.07 ± 0.19, H -0.164 ± 0.12, P -0.275 ± 0.092, K -0.702 ± 0.11, F -0.932 ± 0.28, D -0.674 ± 0.21, M -0.394 ± 0.099, E -0.549 ± 0.23, L -0.138 ± 0.048, R -0.288 ± 0.063, I -0.246 ± 0.088, T -0.028 ± 0.073, S -0.506 ± 0.058, V -0.278 ± 0.064, W -0.592 ± 0.13
R13: F -0.872 ± 0.4, A -0.179 ± 0.073, D -0.803 ± 0.36, K -0.308 ± 0.13, T -0.913 ± 0.3, N -0.618 ± 0.44, S -0.924 ± 0.26, V -0.734 ± 0.1, L -0.913 ± 0.35, E -0.976 ± 0.3, G -0.69 ± 0.12, Q -0.193 ± 0.12, P -0.898 ± 0.27, W -0.733 ± 0.22
K11: E -0.786 ± 0.15, R -0.021 ± 0.051, M -0.546 ± 0.16, Q -0.507 ± 0.064, I -0.458 ± 0.15, L -0.973 ± 0.2, S -0.65 ± 0.14, F -1.02 ± 0.39, V -0.694 ± 0.15, C -0.795 ± 0.2, D -1.02 ± 0.43, W -0.911 ± 0.28, G -0.6 ± 0.11
I15: N -0.546 ± 0.31, H -0.393 ± 0.093, P -1.03 ± 0.21, Q 0.042 ± 0.063, E -0.014 ± 0.11, Y -0.761 ± 0.16, G -0.404 ± 0.087, T -0.13 ± 0.073, R -0.083 ± 0.055, C -0.327 ± 0.094, V -0.219 ± 0.077, L -0.196 ± 0.045, D -0.89 ± 0.26, A -0.173 ± 0.085, K -0.054 ± 0.073, M 0.014 ± 0.058, S -0.272 ± 0.055
F6: K -0.756 ± 0.18, G -0.688 ± 0.053, Q -0.916 ± 0.13, T -0.992 ± 0.17, Y -0.837 ± 0.1, C -0.992 ± 0.17, A -0.666 ± 0.11, S -0.997 ± 0.13, H -0.726 ± 0.12, N -0.88 ± 0.21, M -0.753 ± 0.095, D -1.06 ± 0.22, E -0.791 ± 0.14, P -0.835 ± 0.19, R -0.844 ± 0.086, V -0.941 ± 0.11, W -0.333 ± 0.052
L17: I -0.709 ± 0.5, A -0.401 ± 0.091, R -0.803 ± 0.11, Y -0.858 ± 0.47, H -0.497 ± 0.29, T -0.941 ± 0.25, Q -0.821 ± 0.26, G -0.889 ± 0.16, V -0.785 ± 0.12, N -0.729 ± 0.23, W -0.638 ± 0.11, K -0.804 ± 0.26, S -0.738 ± 0.091, C -0.613 ± 0.11, M -0.453 ± 0.096, F -0.588 ± 0.094
G18: V -0.912 ± 0.16, P -0.608 ± 0.28, R -0.84 ± 0.11, Y -0.825 ± 0.28, S -0.838 ± 0.16, W -0.83 ± 0.23, H -0.742 ± 0.28, F -0.681 ± 0.21, I -0.665 ± 0.27, C -0.688 ± 0.23, N -0.969 ± 0.37, D -0.556 ± 0.15, L -0.62 ± 0.1
E2: G -0.373 ± 0.072, P -0.462 ± 0.19, A -0.412 ± 0.087, I -0.676 ± 0.15, W -0.541 ± 0.094, C -0.984 ± 0.32, Q -0.523 ± 0.16, N -0.518 ± 0.19, T -0.334 ± 0.12, L -0.672 ± 0.14, V -0.895 ± 0.18, S -0.443 ± 0.069, D -0.109 ± 0.2, Y -0.651 ± 0.27, R -0.624 ± 0.091, H -0.968 ± 0.39, K -0.471 ± 0.24

Variants of: B2
Assay: as above
Conditions: Homo sapiens

Abundance fitness, by site and new letter:
G82: V -0.188 ± 0.16, K -0.16 ± 0.15, A -0.051 ± 0.11, S -0.09 ± 0.076, D 0.009 ± 0.11, C -0.117 ± 0.16, W -0.184 ± 0.15, F -0.25 ± 0.17, L -0.148 ± 0.17, H -0.303 ± 0.27, P -0.058 ± 0.12, Q 0.092 ± 0.37, R -0.016 ± 0.082, T -0.023 ± 0.22
R81: W -0.52 ± 0.12, V -0.252 ± 0.11, T -0.174 ± 0.12
